We go through 10 molecules from US20230167164A1 (IMMUNOWAKE, published 2023).

Changes are numbered by the printed parent chain. Names may count otherwise.

The target in assay [1] is T1, human PD-1 (human, UniProt Q15116 25-167, limits assumed).
T1 construct: nivolumab is called an anti-human PD-1 antibody; also called hPD-1
Put plainly: PD-L1-Fc format, calibrated on PD-L1(wt)-Fc binding affinity.

The target of assay [2] is T2, mouse PD-1 (mouse, UniProt Q02242 25-167, limits assumed).
T2 construct: also called mPD-1
T2 sequence (looked up): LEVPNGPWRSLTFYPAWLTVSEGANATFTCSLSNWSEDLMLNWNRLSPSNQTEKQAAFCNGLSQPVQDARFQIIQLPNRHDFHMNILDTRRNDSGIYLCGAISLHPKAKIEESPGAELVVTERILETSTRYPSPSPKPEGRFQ
The assay is described as above.

Assay [3] addresses T3, human IL-2 receptor (human, UniProt P01589 22-272; P14784 27-551; P31785 23-369).
T3 sequence (looked up) 1: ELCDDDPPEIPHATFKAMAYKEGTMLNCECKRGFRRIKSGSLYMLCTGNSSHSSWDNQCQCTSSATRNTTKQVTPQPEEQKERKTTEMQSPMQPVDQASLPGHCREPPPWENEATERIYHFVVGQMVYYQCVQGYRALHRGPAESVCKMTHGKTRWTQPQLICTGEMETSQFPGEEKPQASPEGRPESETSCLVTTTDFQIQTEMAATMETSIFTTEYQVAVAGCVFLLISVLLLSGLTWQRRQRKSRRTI
T3 sequence (looked up) 2: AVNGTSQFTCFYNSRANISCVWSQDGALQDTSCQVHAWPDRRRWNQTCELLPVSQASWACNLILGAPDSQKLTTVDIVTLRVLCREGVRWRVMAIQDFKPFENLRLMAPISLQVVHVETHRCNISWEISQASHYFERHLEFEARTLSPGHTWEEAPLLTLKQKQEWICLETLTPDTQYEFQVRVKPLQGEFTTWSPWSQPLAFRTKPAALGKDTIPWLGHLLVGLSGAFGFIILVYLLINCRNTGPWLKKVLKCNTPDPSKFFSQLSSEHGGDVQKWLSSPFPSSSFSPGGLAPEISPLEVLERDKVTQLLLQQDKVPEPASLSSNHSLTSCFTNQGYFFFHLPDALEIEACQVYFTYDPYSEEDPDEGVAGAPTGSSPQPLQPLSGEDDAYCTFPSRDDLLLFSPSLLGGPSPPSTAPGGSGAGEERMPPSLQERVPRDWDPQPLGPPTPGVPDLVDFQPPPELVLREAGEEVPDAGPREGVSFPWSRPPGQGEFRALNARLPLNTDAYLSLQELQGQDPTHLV
T3 sequence (looked up) 3: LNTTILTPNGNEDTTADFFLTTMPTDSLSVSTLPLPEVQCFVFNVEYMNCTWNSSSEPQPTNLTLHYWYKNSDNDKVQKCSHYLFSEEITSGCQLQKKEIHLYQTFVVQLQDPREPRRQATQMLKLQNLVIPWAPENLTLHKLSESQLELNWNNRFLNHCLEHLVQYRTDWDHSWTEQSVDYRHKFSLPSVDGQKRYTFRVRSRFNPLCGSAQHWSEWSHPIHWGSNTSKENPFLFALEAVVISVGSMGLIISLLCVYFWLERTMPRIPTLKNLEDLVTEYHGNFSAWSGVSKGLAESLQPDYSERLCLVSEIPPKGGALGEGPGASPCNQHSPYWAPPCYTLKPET
Put plainly: cell-based or functional assay.

Assay [4] concerns the target T4, human PD-1 overexpressed on HEK-Blue reporter cells (human, UniProt Q15116 25-288). Put plainly: cell-based or functional assay.
Assay [5] deals with human IL-12 receptor complex (human, UniProt P42701 24-662; Q99665 24-862). Put plainly: cell-based or functional assay.
Assay [6] addresses T4, human PD-1 overexpressed on HEK-Blue …. Put plainly: cell-based or functional assay. This is another data set of the same source.

T4 sequence (Q15116 25-288): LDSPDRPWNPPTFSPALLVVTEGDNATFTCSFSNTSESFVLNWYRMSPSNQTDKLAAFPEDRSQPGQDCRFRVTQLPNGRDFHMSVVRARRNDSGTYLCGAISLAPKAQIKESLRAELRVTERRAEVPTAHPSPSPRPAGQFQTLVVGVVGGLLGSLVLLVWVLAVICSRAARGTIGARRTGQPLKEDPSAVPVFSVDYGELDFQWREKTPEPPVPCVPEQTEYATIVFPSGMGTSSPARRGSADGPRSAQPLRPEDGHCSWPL
T1 sequence (Q15116 25-167 limits assumed): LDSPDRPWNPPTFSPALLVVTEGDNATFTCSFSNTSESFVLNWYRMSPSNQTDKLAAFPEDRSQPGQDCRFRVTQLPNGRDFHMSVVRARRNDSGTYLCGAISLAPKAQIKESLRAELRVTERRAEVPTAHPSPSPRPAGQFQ
Chain of human IL-12 receptor complex (Q99665 24-862, chain 2 of 2, other chains not shown): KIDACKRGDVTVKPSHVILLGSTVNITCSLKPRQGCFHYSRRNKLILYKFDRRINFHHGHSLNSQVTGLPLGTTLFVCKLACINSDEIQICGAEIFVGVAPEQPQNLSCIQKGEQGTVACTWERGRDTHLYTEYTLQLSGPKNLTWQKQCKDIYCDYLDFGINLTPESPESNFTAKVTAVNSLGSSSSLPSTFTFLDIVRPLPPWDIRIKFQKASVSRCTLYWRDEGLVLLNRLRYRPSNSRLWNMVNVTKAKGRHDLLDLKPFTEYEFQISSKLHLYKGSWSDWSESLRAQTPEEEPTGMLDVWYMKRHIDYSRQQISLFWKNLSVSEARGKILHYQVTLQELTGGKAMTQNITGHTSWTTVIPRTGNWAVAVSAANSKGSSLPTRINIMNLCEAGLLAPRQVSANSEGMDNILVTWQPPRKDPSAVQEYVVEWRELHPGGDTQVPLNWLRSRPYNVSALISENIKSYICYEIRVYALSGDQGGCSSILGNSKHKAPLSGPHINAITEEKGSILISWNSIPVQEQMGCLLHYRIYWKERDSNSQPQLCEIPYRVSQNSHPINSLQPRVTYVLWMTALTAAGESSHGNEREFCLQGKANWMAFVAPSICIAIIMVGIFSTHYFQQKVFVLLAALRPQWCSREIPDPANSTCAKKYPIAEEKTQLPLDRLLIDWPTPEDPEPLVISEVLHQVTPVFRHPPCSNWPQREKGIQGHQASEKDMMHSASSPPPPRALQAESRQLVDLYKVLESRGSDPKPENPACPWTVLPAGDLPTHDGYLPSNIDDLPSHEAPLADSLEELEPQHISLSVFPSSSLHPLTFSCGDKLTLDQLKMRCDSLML

B1: PD-L1(mut3)-Fc (Fc fusion)
chain 1: FTVTVPKDLYVVEYGSNMTIECKFPVEKQLDLAALQVYWEMEDKNIIQFVHGEEDLKVQHSSYRQRARLLKDQLSLGNAALQITDVKLQDAGVYTCLIAYKGADYKRITVKVNAPYNKINQRILVVDPVTSEHELTCQAEGYPKAEVIWTSSDHQVLSGKTTTTNSKREEKLFNVTSTLRINTTTNEIFYCTFRRLDPEENHTAELVIPELPLAHPPNERDKTHTCPPCPAPEDEGGPSVFLFPPKPKDTLMISRTPEVTCVVVDVSHEDPEVKFNWYVDGVEVHNAKTKPREEQYNSTYRVVSVLTVLHQDWLNGKEYKCKVSNKALPAPIEKTISKAKGQPREPQVYVYPPSREEMTKNQVSLTCLVKGFYPSDIAVEWESNGQPENNYKTTPPVLDEDGSFALVSKLTVDKSRWQQGNVFSCSVMHEALHNHYTQKSLSLSPGK
chain 2: B1 chain 1 with D234K, E235K, Y351L, T366L, N390R, K392M, T394W, E400S, A405F, V407Y
notes: also called I54Q/R113T/M115L/S117A/G119K
Consider B1, for which the Kd in assay [1] came to 910 nM; in assay [2], 820 nM.

B2: PD-L1(mut7)-Fc (Fc fusion)
chain 1: B1 chain 1 with E40M, K101G
chain 2: FTVTVPKDLYVVEYGSNMTIECKFPVEKQLDLAALQVYWMMEDKNIIQFVHGEEDLKVQHSSYRQRARLLKDQLSLGNAALQITDVKLQDAGVYTCLIAYGGADYKRITVKVNAPYNKINQRILVVDPVTSEHELTCQAEGYPKAEVIWTSSDHQVLSGKTTTTNSKREEKLFNVTSTLRINTTTNEIFYCTFRRLDPEENHTAELVIPELPLAHPPNERDKTHTCPPCPAPEKKGGPSVFLFPPKPKDTLMISRTPEVTCVVVDVSHEDPEVKFNWYVDGVEVHNAKTKPREEQYNSTYRVVSVLTVLHQDWLNGKEYKCKVSNKALPAPIEKTISKAKGQPREPQVYVLPPSREEMTKNQVSLLCLVKGFYPSDIAVEWESNGQPENRYMTWPPVLDSDGSFFLYSKLTVDKSRWQQGNVFSCSVMHEALHNHYTQKSLSLSPGK
notes: also called PD-L1(I54Q/E58M/R113T/M115L/S117A)
Turning to B2, the equilibrium dissociation constant (Kd) in assay [1] came to 98 nM; in assay [2], 110 nM.

B3: PD-L1(mut6)-Fc (Fc fusion)
chain 1: B1 chain 1 with E40M, A99S
chain 2: B2 chain 2 with A99S, G101K
notes: also called PD-L1(I54Q/E58M/R113T/M115L/G119K)
For the molecule B3, the dissociation constant (Kd) turned out to be 555 nM in assay [1] and 420 nM in assay [2].

B4: PD-L1(mut4)-Fc (Fc fusion)
chain 1: B1 chain 1 with E40M, T95R
chain 2: B2 chain 2 with T95R, G101K
notes: also called I54Q/E58M/M115L/S117A/G119K
For the molecule B4, the Kd in assay [1] worked out at 1090 nM; in assay [2] it was 980 nM.

B5: PD-L1(mut5)-Fc (Fc fusion)
chain 1: B1 chain 1 with E40M, L97M
chain 2: B2 chain 2 with L97M, G101K
notes: also called I54Q/E58M/R113T/S117A/G119K
B5: the Kd in assay [1] turned out to be 1200 nM; in assay [2], 1100 nM.

B6: IL-2(R38D/K43E/E61R)/PD-L1(mut2)-Fc (Fc fusion)
chain 1: FTVTVPKDLYVVEYGSNMTIECKFPVEKQLDLAALQVYWMMEDKNIIQFVHGEEDLKVQHSSYRQRARLLKDQLSLGNAALQITDVKLQDAGVYTCLIAYKGADYKRITVKVNAPYNKINQRILVVDPVTSEHELTCQAEGYPKAEVIWTSSDHQVLSGKTTTTNSKREEKLFNVTSTLRINTTTNEIFYCTFRRLDPEENHTAELVIPELPLAHPPNERGGGSGAPTSSSTKKTQLQLEHLLLDLQMILNGINNYKNPKLTDMLTFEFYMPKKATELKHLQCLERELKPLEEVLNLAQSKNFHLRPRDLISNINVIVLELKGSETTFMCEYADETATIVEFLNRWITFCQSIISTLTGGGGSGGGDKTHTCPPCPAPEKKGGPSVFLFPPKPKDTLMISRTPEVTCVVVDVSHEDPEVKFNWYVDGVEVHNAKTKPREEQYNSTYRVVSVLTVLHQDWLNGKEYKCKVSNKALPAPIEKTISKAKGQPREPQVYVLPPSREEMTKNQVSLLCLVKGFYPSDIAVEWESNGQPENRYMTWPPVLDSDGSFFLYSKLTVDKSRWQQGNVFSCSVMHEALHNHYTQKSLSLSPGK
chain 2: FTVTVPKDLYVVEYGSNMTIECKFPVEKQLDLAALQVYWMMEDKNIIQFVHGEEDLKVQHSSYRQRARLLKDQLSLGNAALQITDVKLQDAGVYTCLIAYKGADYKRITVKVNAPYNKINQRILVVDPVTSEHELTCQAEGYPKAEVIWTSSDHQVLSGKTTTTNSKREEKLFNVTSTLRINTTTNEIFYCTFRRLDPEENHTAELVIPELPLAHPPNERGGGGSGGGDKTHTCPPCPAPEDEGGPSVFLFPPKPKDTLMISRTPEVTCVVVDVSHEDPEVKFNWYVDGVEVHNAKTKPREEQYNSTYRVVSVLTVLHQDWLNGKEYKCKVSNKALPAPIEKTISKAKGQPREPQVYVYPPSREEMTKNQVSLTCLVKGFYPSDIAVEWESNGQPENNYKTTPPVLDEDGSFALVSKLTVDKSRWQQGNVFSCSVMHEALHNHYTQKSLSLSPGK
For the molecule B6, in assay [3], the “IL-2 signal transduction, % of rIL2, HEK-IL-2 cells” value was found to be 16%. Besides, the “IL-2 signal transduction, % of rIL2, HEK-IL-2-PD-1 cells” value in assay [4] is 76%.

B7: IL-2(L18R/Q22E/R38D/K43E/E61R)/PD-L1(mut2)-Fc (Fc fusion)
chain 1: B6 chain 1 with L243R, Q247E
chain 2: B6 chain 2
In the case of B7, the “IL-2 signal transduction, % of rIL2, HEK-IL-2 cells” value in assay [3] stood at 4%. Further, the “IL-2 signal transduction, % of rIL2, HEK-IL-2-PD-1 cells” value in assay [4] was determined as 35%.

B8: PD-L1(mut2)-Fc/IL-12(E59A/F60A) (Fc fusion)
chain 1: FTVTVPKDLYVVEYGSNMTIECKFPVEKQLDLAALQVYWMMEDKNIIQFVHGEEDLKVQHSSYRQRARLLKDQLSLGNAALQITDVKLQDAGVYTCLIAYKGADYKRITVKVNAPYNKINQRILVVDPVTSEHELTCQAEGYPKAEVIWTSSDHQVLSGKTTTTNSKREEKLFNVTSTLRINTTTNEIFYCTFRRLDPEENHTAELVIPELPLAHPPNERGGGGSGGGDKTHTCPPCPAPEDEGGPSVFLFPPKPKDTLMISRTPEVTCVVVDVSHEDPEVKFNWYVDGVEVHNAKTKPREEQYNSTYRVVSVLTVLHQDWLNGKEYKCKVSNKALPAPIEKTISKAKGQPREPQVYVYPPSREEMTKNQVSLTCLVKGFYPSDIAVEWESNGQPENNYKTTPPVLDEDGSFALVSKLTVDKSRWQQGNVFSCSVMHEALHNHYTQKSLSLSPGKGGGGSGGGIWELKKDVYVVELDWYPDAPGEMVVLTCDTPEEDGITWTLDQSSEVLGSGKTLTIQVKAAGDAGQYTCHKGGEVLSHSLLLLHKKEDGIWSTDILKDQKEPKNKTFLRCEAKNYSGRFTCWWLTTISTDLTFSVKSSRGSSDPQGVTCGAATLSAERVRGDNKEYEYSVECQEDSACPAAEESLPIEVMVDAVHKLKYENYTSSFFIRDIIKPDPPKNLQLKPLKNSRQVEVSWEYPDTWSTPHSYFSLTFCVQVQGKSKREKKDRVFTDKTSATVICRKNASISVRAQDRYYSSSWSEWASVPCSGGGGSGGGSGGGGSRNLPVATPDPGMFPCLHHSQNLLRAVSNMLQKARQTLEFYPCTSEEIDHEDITKDKTSTVEACLPLELTKNESCLNSRETSFITNGSCLASRKTSFMMALCLSSIYEDLKMYQVEFKTMNAKLLMDPKRQIFLDQNMLAVIDELMQALNFNSETVPQKSSLEEPDFYKTKIKLCILLHAFRIRAVTIDRVMSYLNAS
chain 2: B6 chain 2 with D242K, E243K, Y359L, T374L, N398R, K400M, T402W, E408S, A413F, V415Y
Turning to B8, the “IL-12 signal transduction, % of rIL-12, HEK-IL-12 cells” value in assay [5] was found to be 1%. Further, the “IL-12 signal transduction, % of rIL-12, HEK-IL-12-PD-1 cells” value in assay [6] worked out at 25%.

B9: PD-L1(mut2)-Fc (Fc fusion)
chain 1: B6 chain 2
chain 2: B6 chain 2 with D242K, E243K, Y359L, T374L, N398R, K400M, T402W, E408S, A413F, V415Y
notes: also called PD-L1(I54Q/E58M/R113T/M115L/S117A/G119K)
Take B9: the Kd is 150 nM in assay [1] and 120 nM in assay [2].

B10: IL-2(R38D/K43E/E61R/Q126T)/PD-L1(mut2)-Fc (Fc fusion)
chain 1: B6 chain 1 with Q351T
chain 2: B6 chain 2
Take B10: the “IL-2 signal transduction, % of rIL2, HEK-IL-2 cells” value in assay [3] was determined as 2%. The “IL-2 signal transduction, % of rIL2, HEK-IL-2-PD-1 cells” value in assay [4] came to 20%.
